Laboratory results: patent US10704030B2, “P450-BM3 variants with improved activity” (Codexis, Inc., priority 2015, dated 2020)

Key:
Type in all cases: biochemical
[1] = Validation of generalist properties: oxidation of diclofenac by lyophilized P450-BM3 variant, UPLC-MS; details: for % Conv. / TON: [Diclofenac] = 1 mM; for TON: TON = [substrate]*% conversion/[P450]
Experimental: (§1) For the production of lyophilized protein powders, LB agar plates supplemented with chloramphenicol (30 μg/mL) were streaked with E. coli containing a desired B. megaterium P450-BM3 variant in an IPTG-inducible vector. The plates were grown at 37° C. for 16 hrs before single clones were selected to inoculate a 15 mL Falcon™ tube (Fisher) containing TB media (3 mL) supplemented with chloramphenicol (30 μg/mL). The tube was shaken at 200 rpm, 30° C., and 85% humidity for 20-24 h to grow the cultures to saturation. Then, 2.5 mL of the overnight culture was used to inoculate sterile 1 L flasks containing TB medium (250 mL) supplemented with chloramphenicol (30 μg/mL), trace element solution (as described above), and 0.05 g/L ammonium iron (III) citrate. After being shaken at 250 rpm, 30° C., and 85% humidity to an OD600 of 0.8-1.2, P450 expression was induced by addition of IPTG (500 uM) and the heme precursor 5-aminolevulinic acid (5-ALA) to a final concentration of 500 uM. The cultures were grown for additional 20-24 hours and centrifuged in pre-weighed 250 mL centrifuge bottles for 20 minutes at 4000 rpm, 4° C. The supernatants were discarded, and the centrifuge bottles containing cell pellets were weighed. The pellets were resuspended in 50 mM potassium phosphate buffer with 2 mM DTT, pH 8.0 (5 mL of buffer per gram of cell pellet). The cells were lysed using a microfluidizer homogenizer, and the suspensions of cells and lysate were collected in sterile 50 mL centrifuge tubes. The samples were centrifuged for 30 minutes at 10,000 rpm, 4° C. The clarified lysate was collected into a plastic petri plate and frozen at −80° C. prior to lyophilization. The enzyme-containing lysates were lyophilized using standard methods known in the art.
(§2) Enzyme stocks (˜12 μM) were prepared by dissolving ˜20 mg of each enzyme in 100 mM potassium phosphate buffer, pH 8.0 (1 mL). The concentration of each enzyme stock solution was determined by the UV-visible absorption spectroscopy (after centrifugation to remove particulates) and diluted to standardize at 12 μM heme protein. Substrate solutions were prepared by dissolving each substrate in DMSO to reach a final concentration of 20 mM or 40 mM. Reaction mix (235 μL) followed by enzyme solution (50 μL) was added to the plates. The substrate stock solution was added to the enzyme solutions (15 μL at the two different concentrations). Each reaction contained 100 mM potassium phosphate, 1.0 mM NADP+, 25 mM glucose, 0.5 mg/mL glucose dehydrogenase, 5% DMSO and substrate at 1 or 2 mM. Loratadine, imatinib, and gefitinib (See, FIG. 1) were selected as substrates in addition to diclofenac to validate improved BM3 variants. The reactions were shaken at 450 rpm at 30° C. over 24 hours. All reactions were diluted with acetonitrile to a final concentration of 0.5 mM substrate. The plates were then centrifuged at 3,000 g for 1 hour at 20° C. The supernatant was diluted 1:1 with acetonitrile, filtered using a 0.4 micron filter, and analyzed by UPLC-MS.
(§3) For UPLC-MS analysis, the quenched and filtered reactions were transferred to 96-well HTP plates for analysis by UPLC on a Waters Acquity H-class system equipped with an autosampler. 1 uL of quenched sample was injected onto an Acquity UPLC HSS T3 column, 100 Å, (1.8 um; 2.1×100 mm). The column was eluted at a constant flow rate of 0.6 mL/min; conditions with solvent A (0.05% trifluoroacetic acid v/v, in H2O) and solvent B (0.05% trifluoroacetic acid v/v, in acetonitrile) used to elute the products of the reaction were: 0-2 min, A/B 95:5; 2-2.9 min, A/B 5:95; 2.9-3 min, A/B 95:5; 3-3.5 min, A/B 95:5. Column eluent was monitored by PDA (200-600 nm) prior to MS analysis in positive ESI mode (desolvation temperature 350° C., 3.25 kV spray voltage, cone voltage 25V). The column eluent was diverted to waste for the first 0.7 minutes of the run. For the remainder of the LC run, both MS (m/z 95-600 scan range) and MS/MS were collected. […]

[2] = Validation of generalist properties: oxidation of imatinib by lyophilized P450-BM3 variant, UPLC-MS; details: for % Conv. / TON: [Imatinib] = 1 mM; for TON: TON = [substrate]*% conversion/[P450]
Experimental: as §1, §2, §3

[3] = Validation of generalist properties: oxidation of loratadine by lyophilized P450-BM3 variant, UPLC-MS; details: for % Conv. / TON: [Loratadine] = 1 mM; for TON: TON = [substrate]*% conversion/[P450]
Experimental: as §1, §2, §3

[4] = Validation of generalist properties: oxidation of gefitinib by lyophilized P450-BM3 variant, UPLC-MS; details: for % Conv. / TON: [Gefitinib] = 1 mM; for TON: TON = [substrate]*% conversion/[P450]
Experimental: as §1, §2, §3

| Molecule | % Conv. [1] | TON [1] | performance (% conversion at 1 mM substrate loading), in words ([1]; diclofenac, 1 mM substrate loading) | % Conv. [2] | TON [2] | performance (% conversion at 1 mM substrate loading), in words ([2]; imatinib, 1 mM substrate loading) | % Conv. [3] | TON [3] | performance (% conversion at 1 mM substrate loading), in words ([3]; loratadine, 1 mM substrate loading) | % Conv. [4] | TON [4] | performance (% conversion at 1 mM substrate loading), in words ([4]; gefitinib, 1 mM substrate loading) |
| --- | --- | --- | --- | --- | --- | --- | --- | --- | --- | --- | --- | --- |
| SEQ ID NO: 4: P450-BM3 parental backbone from the commercially available MCYP panel (MCYP-0343; Codexis) (protein, P450_BM3) MTIKEMPQPKTFGELKNLPLLNTDKPVQALMKIADELGEIFKFEAPGCVTRYLSSQRLIKEACDESRFDKNLSQALKFARDFAGDGLVTSWTHEINWKKAHNILLPSFSQQAMKGYHAMMVDIAVQLVQKWERLNADEHIEVSEDMTRLTLDTIGLCGFNYRFNSFYRDQPHPFIISMVRALDEVMNKLQRANPDDPAYDENKRQCQEDIKVMNDLVDKIIADRKARGEQSDDLLTQMLNGKDPETGEPLDDGNISYQIITFLIAGHETTSGLLSFALYFLVKNPHVLQKVAEEAARVLVDPVPSYKQVKQLKYVGMVLNEALRLWPTAPAFSLYAKEDTVLGGEYPLEKGDEVMVLIPQLHRDKTIWGDDVEEFRPERFENPSAIPQHAFKPFGNGQRACIGQQFALHEATLVLGMMLKHFDFEDHTNYELDIKETLTLKPEGFVVKAKSKKIPLGGIPSPSTEQSAKKVRKKAENAHNTPLLVLYGSNMGTAEGTARDLADIAMSKGFAPQVATLDSHAGNLPREGAVLIVTASYNGHPPDNAKQFVDWLDQASADEVKGVRYSVFGCGDKNWATTYQKVPAFIDETLAAKGAENIADRGEADASDDFEGTYEEWREHMWSDVAAYFNLDIENSEDNKSTLSLQFVDSAADMPLAKMHGAFSTNVVASKELQQPGSARSTRHLEIELPKEASYQEGDHLGVIPRNYEGIVNRVTARFGLDASQQIRLEAEEEKLAHLPLAKTVSVEELLQYVELQDPVTRTQLRAMAAKTVCPPHKVELEALLEKQAYKEQVLAKRLTMLELLEKYPACEMKFSEFIALLPSIRPRYYSISSSPRVDEKQASITVSVVSGEAWSGYGEYKGIASNYLAELQEGDTITCFISTPQSEFTLPKDPETPLIMVGPGTGVAPFRGFVQARKQLKEQGQSLGEAHLYFGCRSPHEDYLYQEELENAQSEGIITLHTAFSRMPNQPKTYVQHVMEQDGKKLIELLDQGAHFYICGDGSQMAPAVEATLMKSYADVHQVSEADARLWLQQLEEKGRYAKDVWAG | +++ (10.01-15.00) | ‡‡‡ (5001-10000) | moderate activity | ++ (5.01-10.00) | ‡‡ (1001-5000) | low activity | ++++ (15.01-20.00) | ‡‡‡‡ (10000-50000) | moderate activity | + (0-5.00) | ‡ (0-1000) | low activity |
| SEQ ID NO: 2: P450-BM3 parental backbone from the commercially available MCYP panel; a chimera, P450 domain 86% identical to Bacillus subtilis P450 (protein, P450_BM3, P450-BM3 parental backbone from the commercially available MCYP panel; a chimera, P450 domain 86% identical to Bacillus subtilis P450) MLMKQASAIPQPKTYGPLKNLPHLEKEQLSQSLWRIADELGPIFRFDFPGVSSVFVSGHNLVAEVCDEERFDKSIEGALEKVRAFSGDGLATSWTHEPNWRKAHNILMPTFSQRAMKDYHEKMVDIATQLIQKWSRLNPNEEIDVADDMTRLTLDTIGLCGFNYRFNSFYRDQPHPFITSMVRALDEAMNKLQRANPDDPAYDENKRQFQEDIKVMNDLVDSIIAERRANGDQDEKDLLARMLNVEDPETGEKLDDENIRFQIITFLIAGHETTSGLLSFAIYCLLTHPEKLKKAQEEADRVLTDDTPEYKQIQQLKYIRMVLNETLRLYPTAPAFSLYAKEDTVLGGEYPISKGQPVTVLIPKLHRDQNAWGPDAEDFRPERFEDPSSIPHHAYKPFGNGQRACIGMQFALQEATMVLGLVLKHFELINHTGYELKIKEALTIKPDDFKITVKPRKTAAINVQRKEQAEQSAKKVRKKAENAHNTPLLVLYGSNMGTAEGTARDLADIAMSKGFAPQVATLDSHAGNLPREGAVLIVTASYNGHPPDNAKQFVDWLDQASADEVKGVRYSVFGCGDKNWATTYQKVPAFIDETLAAKGAENIADRGEADASDDFEGTYEEWREHMWSDVAAYFNLDIENSEDNKSTLSLQFVDSAADMPLAKMHGAFSTNVVASKELQQPGSARSTRHLEIELPKEASYQEGDHLGVIPRNYEGIVNRVTARFGLDASQQIRLEAEEEKLAHLPLAKTVSVEELLQYVELQDPVTRTQLRAMAAKTVCPPHKVELEALLEKQAYKEQVLAKRLTMLELLEKYPACEMKFSEFIALLPSIRPRYYSISSSPRVDEKQASITVSVVSGEAWSGYGEYKGIASNYLAELQEGDTITCFISTPQSEFTLPKDPETPLIMVGPGTGVAPFRGFVQARKQLKEQGQSLGEAHLYFGCRSPHEDYLYQEELENAQSEGIITLHTAFSRMPNQPKTYVQHVMEQDGKKLIELLDQGAHFYICGDGSQMAPAVEATLMKSYADVHQVSEADARLWLQQLEEKGRYAKDVWAG | + (0-5.00) | ‡ (0-1000) |  | ++ (5.01-10.00) | ‡‡ (1001-5000) |  | + (0-5.00) | ‡ (0-1000) |  | + (0-5.00) | ‡ (0-1000) |  |
